This note sets out measurements from patent US8765444 (BOARD OF TRUSTEES OF THE UNIVERSITY OF ILLINOIS, dated 2014).

T1: TBK1 (as used in Example 6; construct not named) (Homo sapiens (Human), UniProt Q9UHD2 1-729)
T1 construct: also called HA-TBK1 (constructed, probably the one used)
T1 sequence: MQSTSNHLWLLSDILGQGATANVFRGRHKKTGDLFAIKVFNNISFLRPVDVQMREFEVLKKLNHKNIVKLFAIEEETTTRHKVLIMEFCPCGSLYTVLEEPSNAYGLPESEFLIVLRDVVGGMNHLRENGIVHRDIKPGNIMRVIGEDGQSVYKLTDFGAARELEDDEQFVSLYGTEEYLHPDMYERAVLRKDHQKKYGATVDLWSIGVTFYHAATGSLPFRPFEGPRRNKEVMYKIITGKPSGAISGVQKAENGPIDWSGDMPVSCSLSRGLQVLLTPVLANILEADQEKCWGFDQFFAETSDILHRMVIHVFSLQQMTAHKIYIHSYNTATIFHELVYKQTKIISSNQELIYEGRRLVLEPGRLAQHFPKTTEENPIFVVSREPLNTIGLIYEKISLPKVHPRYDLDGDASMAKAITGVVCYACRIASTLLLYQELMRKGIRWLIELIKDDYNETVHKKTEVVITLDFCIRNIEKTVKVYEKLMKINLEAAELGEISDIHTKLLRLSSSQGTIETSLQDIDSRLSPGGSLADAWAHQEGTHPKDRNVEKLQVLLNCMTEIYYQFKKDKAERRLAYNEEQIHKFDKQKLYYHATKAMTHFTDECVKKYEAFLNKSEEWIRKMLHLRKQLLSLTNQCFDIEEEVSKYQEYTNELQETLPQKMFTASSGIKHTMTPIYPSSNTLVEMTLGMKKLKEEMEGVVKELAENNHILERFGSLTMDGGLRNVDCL

B1: FLAG-γ134.5 Δ30 (other)
chain: STPNSEPAVRSAPAAAPPPPPASGPPPSCSLLLRQWLHVPESASDDDDDDDWPDSPPPEPAPEARPTAAAPRPRSPPPGAGPGGGANPSHPPSRPFRLPPRLALRLRVTAEHLARLRLRRAGGEGAPEPPATPATPATPATPATPATPATPATPATPATPARVRFSPHVRVRHLVVWASAARLARRGSWARERADRARFRRRVAEAEAVIGPCLGPEARARALARGAGPANSV
notes: Deletion 'encompassing amino acids 1 to 30'
B2: FLAG-γ134.5 Δ72 (other)
chain: MARRRRHRGPRRPRPPGPTGAVPTAQSQVASDDDDDDDWPDSPPPEPAPEARPTAAAPRPRSPPPGAGPGGGANPSHPPSRPFRLPPRLALRLRVTAEHLARLRLRRAGGEGAPEPPATPATPATPATPATPATPATPATPATPATPARVRFSPHVRVRHLVVWASAARLARRGSWARERADRARFRRRVAEAEAVIGPCLGPEARARALARGAGPANSV
notes: Deletion 'encompassing amino acids 30 to 72'; the printed limits overlap with the neighbouring deletions, so the exact junction is uncertain
B3: FLAG-γ134.5 N159 (other)
chain: MARRRRHRGPRRPRPPGPTGAVPTAQSQVTSTPNSEPAVRSAPAAAPPPPPASGPPPSCSLLLRQWLHVPESASDDDDDDDWPDSPPPEPAPEARPTAAAPRPRSPPPGAGPGGGANPSHPPSRPFRLPPRLALRLRVTAEHLARLRLRRAGGEGAPE
notes: Carboxyl-terminal domain deleted; the exact last residue (158 or 159) is uncertain

The target of the assay is T1, TBK1 (as used in Example 6; construct …). Put plainly: co-immunoprecipitation from transfected 293T cells.
As to B1, the binding result is on record as “binds”.
Regarding B2, the binding result is listed as “binds”.
As for B3, the entry is “binds”.
